Test results: the supplement of paper PMC9732359
± gives the uncertainty stated by the source.

Assay: protein stability index of a GFP-peptide fusion (yeast GPS) (PSI 1-4); higher = more stable; sorted into four equal gates, so the index is relative within each strain
How it was run: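 Yeast carrying a pooled library were grown to mid-log phase in leucine-free medium. Each library plasmid expresses Cherry and has a tiled 17-residue yeast protein peptide fused downstream of GFP. Cells were sorted into four equal gates by GFP/Cherry ratio, and plasmids from each gate were PCR-amplified, Illumina-sequenced and assigned to strains by barcode. Summing, across gates, the read frequency times the gate number gave each peptide's protein stability index.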

| Sequence | protein stability index (doa10∆) | protein stability index (pdr5∆) | protein stability index (san1∆) | protein stability index (ubr1∆) |
| --- | --- | --- | --- | --- |
| VVIAADTRSTQGPIVAD [PUP1] | 2.65 ± 0.1 | 3.29 ± 0.24 | 2.68 ± 0.19 | 3 ± 0.072 |
| GDDESKIPAVEYFGGES [FAS1] | – | 3.17 ± 0.29 | 2.97 ± 0.2 | – |
| RADVEDESNDIDMIADE [RPC37] | 2.95 ± 0.073 | 2.72 ± 0.057 | 2.8 ± 0.08 | 3.27 ± 0.066 |
| VKGLLNTYKRLVIGIFK [YJL039C/NUP192] | 2.53 ± 0.061 | 2.46 ± 0.051 | 1.5 ± 0.11 | 2.2 ± 0.04 |
| ESLKKSPIFEVLSDDAK [ARP9] | 3.01 ± 0.072 | 3.15 ± 0.079 | 3.06 ± 0.073 | 3.32 ± 0.058 |
| TAVNGIDTDLFGAPNNP [YGL172W/NUP49] | 3.1 ± 0.083 | 3.23 ± 0.08 | 3.25 ± 0.058 | 3.19 ± 0.053 |
| TGYDLSNSVFSPDGRNF [PRE10] | 2.79 ± 0.072 | 2.88 ± 0.089 | 2.52 ± 0.13 | 2.97 ± 0.087 |
| DTTVPKRLGPKRANNIR [RPS6A] | 3.46 ± 0.11 | 3.68 ± 0.11 | 3.19 ± 0.051 | 3.37 ± 0.063 |
| PDCKIKIAHGTTTLAFR [PRE2] | 2.64 ± 0.077 | 2.72 ± 0.056 | 2.65 ± 0.066 | 2.71 ± 0.064 |
| GIKVLPETCLFVSYFGK [YML103C/NUP188] | 2.7 ± 0.055 | 2.42 ± 0.038 | 2.44 ± 0.074 | 2.68 ± 0.039 |
| ITVVPVVAAAEDDDNEQ [QCR6] | 1.61 ± 0.068 | 2.04 ± 0.064 | 1.72 ± 0.12 | 1.89 ± 0.036 |
| QIIRRVKEMEPKQSDEY [SIR3] | 3.29 ± 0.12 | 3.18 ± 0.11 | 3.37 ± 0.069 | 2.89 ± 0.15 |
| VKQLENVSSNIVKNAEQ [RPS20] | 2.58 ± 0.092 | 2.84 ± 0.081 | 3.15 ± 0.049 | 2.86 ± 0.056 |
| TLPSVGHTLINNYKDLL [RPP0] | – | 3.34 ± 0.21 | – | – |
| TKDIFPLQNIHVRKVKL [RPS1A] | 2.4 ± 0.084 | 2.81 ± 0.097 | 2.6 ± 0.072 | 2.84 ± 0.09 |
| LLPPIKIELIKNNLLIP [RPN12] | 2.16 ± 0.071 | 2.24 ± 0.062 | 1.75 ± 0.11 | 2.09 ± 0.044 |
| WLWPLCRGELKADIGKP [CDC53] | 2.11 ± 0.078 | 2.06 ± 0.062 | 1.98 ± 0.089 | 2.43 ± 0.09 |
| QRIIKELSIRFPQYKLT [ARP7] | 1.9 ± 0.058 | 1.67 ± 0.089 | 2.12 ± 0.081 | 1.7 ± 0.047 |

| Sequence | protein stability index (doa10∆) | protein stability index (pdr5∆) | protein stability index (san1∆) | protein stability index (ubr1∆) |
| --- | --- | --- | --- | --- |
| LIPTIFRYITTWENEFL [PRP8] | 2.38 ± 0.056 | 2.04 ± 0.047 | 1.75 ± 0.054 | 2.21 ± 0.034 |
| SFLESVIRDSVTYTEHA [HHF1] | 2.82 ± 0.077 | 2.29 ± 0.064 | 2.17 ± 0.058 | 2.47 ± 0.049 |
| SKSPSEWQDIIHQREQE [CSE2] | 3.33 ± 0.16 | 3.31 ± 0.12 | 3.25 ± 0.085 | 3.2 ± 0.14 |
| NKTKAVDNTVPSTTLFN [YOR098C/NUP1] | 2.84 ± 0.087 | 2.58 ± 0.067 | 3.04 ± 0.054 | 3.15 ± 0.055 |
| EKKDDNSSKPAFSFGAK [YJL041W/NSP1] | 2.3 ± 0.054 | 1.86 ± 0.039 | 2.02 ± 0.06 | 2.25 ± 0.037 |
| REAIRPGHEMEDFLDKS [AAR2] | 3.23 ± 0.062 | 2.87 ± 0.056 | 3.24 ± 0.044 | 3.22 ± 0.036 |
| PKRKRRLPVSEDTNTKP [YOR098C/NUP1] | 3.16 ± 0.11 | 2.82 ± 0.13 | – | 2.97 ± 0.073 |
| EGQIIQRSNISTAIKSL [CDC53] | 1.55 ± 0.056 | 2.33 ± 0.099 | 2.46 ± 0.16 | 1.79 ± 0.079 |
| FHNAVFNSFRRFKSQFL [QCR8] | 2.31 ± 0.068 | 1.52 ± 0.046 | 1.6 ± 0.088 | 1.54 ± 0.046 |
| ARWPAKSVKFVQGLLQN [RPL17A] | 2.35 ± 0.097 | 2.17 ± 0.083 | 1.89 ± 0.088 | 2.13 ± 0.073 |
| RTPVIISLRNNHKIIAR [SMD2] | 1.77 ± 0.042 | 1.97 ± 0.035 | 2.13 ± 0.06 | 1.81 ± 0.044 |
| DRSASRAVFLFRCKETH [RPC82] | 1.77 ± 0.084 | 3.07 ± 0.15 | – | 3.02 ± 0.17 |
| KGEQIAIFPYQDPIFGS [ECM29] | 2.09 ± 0.048 | 2.28 ± 0.053 | 2.37 ± 0.067 | 2.23 ± 0.039 |
| VLQEYRLTKQAFDWVLS [RPO21] | 2.59 ± 0.068 | 2.48 ± 0.069 | 2.89 ± 0.073 | 2.78 ± 0.046 |
| KLLIQIDELSNGQRSNS [SMC1] | 2.42 ± 0.16 | 2.59 ± 0.11 | 3.14 ± 0.1 | 3.11 ± 0.16 |
| LHKLQRMRLRALETENM [GRR1] | 1.46 ± 0.046 | 1.92 ± 0.059 | 1.47 ± 0.077 | 1.38 ± 0.032 |
| QIPQQLYQSLTPQQLQM [SNF5] | 2.73 ± 0.041 | 2.7 ± 0.038 | 2.57 ± 0.045 | 2.77 ± 0.034 |
